Results on 20 sequences are retold here after a protein production outcome set (Wang et al. 2014).

The data set is described as follows: label from the status in PepcDB records.

On to “MKVKKWVTQDFPMVEESATVRECLHRMRQYQTNECIVKDREGHFRGVVNKEDLLDLDLDSSVFNKVSLPDFFVHEEDNITHALLLFLEHQEPYLPVVDEEMRLKGAVSLHDFLEALIEALAMDVPGIRFSVLLEDKPGELRKVVDALALSNINILSVITTRSGDGKREVLIKVDAVDEGTLIKLFESLGIKIESIEKEEGF”, for which the protein production result is “not failed”.

Turning to “MKVLKFGGTSVGDAERIRSVARLITSVKGRKIIVLSAMAGTTNSLVEIASHLVKRNVAQAKEVVQVLREKYHREINALYKRPDTLSAAKKAVDSLLDSLGHMCDVEGFTLFEEKRVLIL”, the protein production result is “failed”.

Regarding “MKVQATFATLIALAAYFPAANAWKDCIIQRYKDGDVNNIYTANRNEEITIEEYKVFVNEACHPYPVILPDRSVLSGDFTSAYADDDESC”, the protein production result was “not failed”.

For the sequence “MKVQITNSRTEEILKVQANNENDEVSKATPGEVEESLRLIGDLKFFLATAPVNWQENQIIRRYYLNSGQGFVSCVFWNNLYYITGTDIVKCCLYRMQKFGREVVQKKKFEEGIFSDLRNLKCGIDATLEQPKSEFLSFLFRNMCLKTQKKQKVFFWFSVAHDKLFADALERDLKRESLNQPSTTKPVNEPALSFSYDSSSDKPLYDQLLQHLDSRRPSSTTKSDNSPPKLESENFKDNELVTVTNQPLLGVGLMDDDAPESPSQINDFIPQKLIIEPNTLELNGLTEETPHDLPKNTAKGRDEEDFPLDYFPVSVEYPTEENAFDPFPPQAFTPAAPSMPISYDNVNERDSMPVNSLLNRYPYQLSVAPTFPVPPSSSRQHFMTNRDFYSSNNNKEKLVSPSDPTSYMKYDEPVMDFDESRPNENCTNAKSHNSGQQTKQHQLYSNNFQQSYPNGMVPGYYPKMPYNPMGGDPLLDQAFYGADDFFFPPEGCDNNMLYPQTATSWNVLPPQAMQPAPTYVGRPYTPNYRSTPGSAMFPYMQSSNSMQWNTAVSPYSSRAPSTTAKNYPPSTFYSQNINQYPRRRTVGMKSSQGNVPTGNKQSVGKSAKISKPLHIKTSAYQKQYKINLETKARPSAGDEDSAHPDKNKEISMPTPDSNTLVVQSEEGGAHSLEVDTNRRSDKNLPDAT”, the protein production entry is reported as “failed”.

Consider “MKVSCCFGTCLKHLDPACVKTSRRIAILHSALPRQRPPPALECPAFSFGDSDMTDQRKGSDAEPTTHFGFKNVPESQKAEKVAEVFHSVAAKYDLMNDVLSGGMHRLWKRFTIELSGVRAGNRVLDIAGGTGDLTKRFSHLVGPTGQVVLADINESMLKVGRDRLLDLGVAGNVEFVQADAEKLPFPDNHFDCVTIAFGLRNVTHKEDALRSMLRVLKPGGRLLVLEFSKPTNALMSKVYDAYSFAFMPLAGKLITNDSESYRYLAESIRMHPNQETLKSMMVEAGFDRVTYHNMTAGIVALHRGIKP”, for which the protein production entry is “failed”.

As for “MKVSSKLLSITNHHEYLDLVTDGAKFRIYLLDENIIRIRGTFDDDFAPEESYALVKTAWADATDDLIGDERQRVTPIAVELTETADGYTVSNGRYTLEIHAEPFYFEIKDQNGVTVHKDLVKRSFVQDDLGRRFHYSAMGDHDKFYGFGEKSGKLNKFKRRMRMHNTDSLGWNAAKSDPLYKMIPFYIDFNTTTNIASGLYYNNTHDSVFDMDCEHSNYWLRYSYFQCDGGDLDVFFIGGPTIKQVVEHYTDLTGKSAMMPLPSLGYMGSTMFYTELDQDADQAILDFIDTCKKNGIPCDGFFLSSGYTSGKDGKRYVFNWNKKRFPDPQKFVAELKKRGALLAPNIKPGMLVTHPLADEFMEKDAYIKTPDGQGSQVDQYWGGDAHFVDFTNPHGRDAWEQKMTEALLSIGITSIWNDNNEYEINDTQAVVDAEGQKSTIGALKPIMPTMMAKAAKDAINRYDATVRPYLVNRAGFAGIQRYAQTWAGDNYTSWTNVKYNIPTILGMGLSGVANQGCDIGGFDGPLPEPELFVRWVQNGIFQPRFSIHSCNNDNTVTEPWTYPAYTKYIRAAIQLRYSLVPYLYSLLYEASTKGSPIMRPLVYEFQDDPQVAEESFEFMLGASLLVANVVDKGQTAKSVYLPAGVDWLDLKTSQYYTGGQTITIPVDLGSIPMFLKAGSIVPQSKGLMNLHNDVIDKLDVLIEPSRDAEFVVYEDDGVTNNYRQGETLETTIKTTATADGVVIDFSRVGQYQTQVKTMALAVCCPKIAPLSVDLADQSLPRYLNAAKFADAAEGWYFDGESRQVQIKYANPEVAGYAVKVNFSVKDLISI”, the protein production entry is given as “failed”.

For “MKVSVIIPTYNERENLEELFSRIDNALQGLNYEIVVVDDDSPDRTWEKAQELSSKYPVKVIRRTKEKGLSSAVIRGFKEASGDVFVVMDADLQHPPEVIPKLIEAIKNGSDIAIGSRYVKGGKVENWPFYRKLISKGAIMVGRIALPKIRDIKDPVSGFFALRKEVVEGVELNPIGFKILMEILIKGKYSKVVEVPFTFGIRARGESKLKGKTIFEYLRHIYRLMKWEGEIDRIVKFSIVGLSGILVNEGFLWLFVNLGIPKEIAVIPAVELSILNNFFWNDIWTFKDIRRGSIFSRLLKFHIAALSGAVVNFIVYWILLFLGIHYLIANLVGIVLSFGVRYVINRHVTWAT”, the protein production result is given as “failed”.

“MKVTFMNLEERKKLETKSIDELDLIGKKVCVDTCVVIDGRITELIERGKLKDATIIIPEAVVSELEYQANMGREIGYKGIEELRKLIEKASEHNIKVEYYGERPTREEIFLAKSGEIDAMIRKVAKETNSILLTSDWIQYNLAKAQGIEAYFLEAAEEEVELVLD”: the protein production result is given as “not failed”.

Consider “MKVTNLFKDKVDAISAHQSEFMNWMSPTLRDYWSDFLGKAQNSFLFSNVRDHNQPAVNEEVAPQPAPIVLQPEAQKLYDELSGKIGEVIHTGDWVHVSQERINQFGAVTEDMQWIHTDPERASVESPFKTTIAHGFLTLALLPKLTDSVDADKPLFPTAKLVVNLGLNQVRFPYPVKAGNNVRAVSTLTKVTPIKKGLEIEREIKVEIEGVRRPGAVVVSVIQLHFLEHHHHHH”, for which the protein production result is listed as “not failed”.

Take “MKVTSAEKHALLLPDNRTLTWYESGPSDGQPVLFCTGAGMSGLLSMDADLLTKLNIRLITPTRPGLGESTFDPKKTLKSFSSDVLFLLAYLNIKNISVIGSSQGAVFAMAICYYGKVDKLAIVAGQDQLDYPEIKKLLSSDVVNMQQQALFDPDGLKTWIIENITADWLMDFILNYSADVDLALYQENKFFPVYQACMKEAFKYGNKGYAQDLLITMQPWGFTPEMISTPTTLWYGLKDTSTVHSPDFGKLLSQRFPHAQRYVYDNEGGSLLWTKTSQILTNLIS”: the protein production result is on record as “failed”.

Regarding “MKVVVITGNLSRPSKTRAVADFMVDRVRASGNEASCWDLVDLHPHLGATVLPSSAAEIVKAALNDILASDVLVVGSPVYKASYTGLLKHLFDLVDMKALKGRYVIPFATGKASSHKPLVEASMEALFDFFEAQIHSRFIFALDEDFQNDALSENLRALVDRELDAARRAVSP”, the protein production entry is “failed”.

As for “MKVVVQIKDFDKVPQALRSVINLYNDIKDAEIEVVLHQSAIKALLKDSDTRSIIEDLIKKNILIVGCENSIRSQNLSHDQLIPGIKIVTSGVGEIVRKQSEGWIYLAL”, the protein production result is listed as “not failed”.

Regarding “MKVYLHFSPQFFANTYLIGNEITKEAVIIDPAKITEKMIHQIEKNEFNLKAVLLTHDLEHPYETGLNTILKIYSPKVYAGSCFSENVTINTLRGDGCIDVAGYSVRYFAIPAHSSYSYMFQIENMVFTGTSLSAGMIGQTSNMYAERTLRNILKTKLMCFEDNLIIMPFYGPPTSIGVERKYNASFFQDFEKKPFLEHHHHHH”, the protein production result was “not failed”.

With “MKWIDSHIHVDQYKDEEKSRLLKEVENSKEIKGLIAVSMNYQSCKETLSLAKKYPFIYPAIGFHPEQQIHKEECEQIYQLIEQNAEEIVAIGEVGLPYYLRKEDERIAADPYIAVLKKFIELASKYNLPIVLHAVYEDADIVCDLLEKYKVSRAHFHWFKGSDETMKRMMRNGYYISITPDVLHKEKIRKIVSYYPLEYMMVETDGPWEFQEDVITHPRMIREVLKEISSIKNISIDKVAETIYENTSRFYLK”, the protein production entry is “failed”.

In the case of “MKWLRSEMKTFAIHLPQFHTFPENDRWWGKGFTEWTNVKKAKPLYEGHSQPLIPINSHYYDLSNPEEMTRQHRLAAQYGIDGFVYYHYWFNGKKLMEKPVEDLLTNKEAKQQYCLCWANEPWTRAWDGKNKEILMPQTFGGQEDWLNHIRYLISFFKDERYLRIQGRPVFFVYSPKNIPNFDNMIEFWDSYLERCGEEKIYLIEYISSFNPKAFSDYSKAVFEFEPLYSAHYEISFLKQADRFIDKKMKRLDCLDYDYLWNRILNKQRKYGTRQIVRSAFTNFDNSPRKGTRAFITQGSSYTKFADYLNQLIHSNRQDYMDFTVINAWNEWGEGAILEPTESDQYGWLQAVKDAVQ”, the protein production entry is “failed”.

For “MKWRSRQLSFSSAKWYGDVIWIFDPGIIGAQIDNEGDLKKCFIQTLFHSTGSRQSIRIWWREIMLSLILRIYLDKFLPWISLSIKEVGESSVINFSLWGCLHGTRFRRWYSPFQKLSALAITKKDVISSSWRCFNGMRCN”, the protein production entry is on record as “failed”.

With “MKWRYSPKTSNYCFIVGGFFLFLPILMYGWGHFRRPPRSENQQELFRGIVYQRLIESKPRPLIIHIVTIDLNTPGIKPFITPDIENLSKNVGVGKQAIIDNETKARTTSEFVAEFQVKLAINGSYFYPFKEVTPWHYYPHSGDTTKVLGQTISNGKIYANKKSSWYVLCFDNNNQAQIPGGEECPKNTIQGLAGDDVLVFQGKPKINIYANSSADKPYSRVVAAIDKTGKKLWLVLVDGKQPLYSEGFTKRELTQFIAKLGVYNAINLDGGGSTTLVVANPDKEGKPKILNAPTHTKILMRDRPVANHLGFYAD”, the protein production entry is “failed”.

As to “MKYADISHFSHPQHNLKFDYTEKPFKCDGCNEVGIGSRYRCSGDNHGSCDFDLHAHCALPSASITHPFYKKCTFQFVARPPGNERRYCNACEKDVSGFLYHCKACGFDLHPCCAMLPMVLDDGETNLFLYRKVSSSCHRCGKKGRSWSYRSLFLILFLFFHYYDTKD”, the protein production entry is “failed”.

Consider “MKYIRKSISIFAVLALVFILSFGNVSAGTIYESKTKETVTSGVTLETITRFTDDGWQKINVLRVDLENPNVKVDTLIDSESIKKLTNVKNLAQSAGAVAAVNAGFFNWLKGESGKGYPDGPVIKSGEFLSVDSEYNRYNNSMATIAIDKDNNVYFDFWKTDITLHAPDGSTTRVFQYNKPSPFQYTDITIWTSAWDKYSLGVSQQYPDLVEVVVDNGTVVEIRQGLPAVEIPQNGYVIISRGANAQFLLQHFKVGDPVEISFSTVLDWQKIEMAVTGSAILVKDGQIPEKFSYEISGVHPRTAAGTSKSGKELILVTVDGRQAASKGMTQRELANLMLSLGAYNAINLDGGGSTSMVSRIPGTNDLKVVNTPSDGALRSISTAIGVFSVAPPSELAGMIIETQPNVFVNSSTTLTVKGYDKYFNPVSVDPNSINWSVSGIKGSFAGNVFRAESSGIGTITATVNGIKASTTIRALEAPNKLILSTTKLNLLKGSSYSFTVKGVDNNGYSSYINFADINWTVNGDIATIEKNKITAVKPGTGYIEAAFGDARAYCAVSVASESTYLVDDFEKKNGSFETVPANLPGSYELSSEVKKSGNYSGKLSYDFSYLEGTRAAYLVFPNGGIDLDGNTVEITMMVNNPQQNPNWLRAEVIDSGGQKHLVDFTRDLTWTGWGRVFASLRDIKSPAKLTKIYVVQVNPVPSSGCIYIDDLSLVKATFPEINESTIPKDVVLSDRDNKEAALNKDSIKISVFSGKSNPENMLQKLLNTKFYNKVKADGYMKSIQDISNINTNTHVDIGGTRLITLNTTDKSIRTSASGQWQWFFDKLNSHTGDNIFIFMKNSPDTFVDPLEAKLFKDILIEHKEKTGKNIWVFYGNSSETYYADNGIKYFGVAGLNIGGLTPDNAKNVKYIEITVNGKEVSYQYKSPLK”, for which the protein production result was “failed”.

With “MKYLAAYLLLVQGGNAAPSAADIKAVVESVGAEVDEARINELLSSLEGKGSLEEIIAEGQKKFATVPTGGASSAAAGAAGAAAGGDAAEEEKEEEAKEESDDDMGFGLFD”, the protein production entry is “failed”.
